Results published in the RNAGym collection of RNA variant scans (doi:10.7554/elife.80360).

B1: CPEB3 Ribozyme (parent)
chain: GGGGGCCACAGCAGAAGCGUUCACGUCGCGGCCCCUGUCAGAUUCUGGUGAAUCUGCGAAUUCUGCUGU

Variants of: B1
Assay: self-cleavage, relative activity (ratio to wild type); higher = more cleavage; co-transcriptional

Question: For GGGGGACACAGCAGAAUCGUUCACGUCGCGGCCCCUGUCAGAUUCUGGUGAAUCUGCGAAUUCUGCUGU [C6A G17U], which self-cleavage is on record?
Answer: 0.119

Question: For GGGGGACACAGCAGAACCGUUCACGUCGCGGCCCCUGUCAGAUUCUGGUGAAUCUGCGAAUUCUGCUGU [C6A G17C], which self-cleavage is on record?
Answer: 0.115

Question: Which self-cleavage does the source give for GGGGGACACAGCAGAAGCGUUCGCGUCGCGGCCCCUGUCAGAUUCUGGUGAAUCUGCGAAUUCUGCUGU [C6A A23G] here?
Answer: 0.511

Question: Which self-cleavage does the source give for GGGGGACACAGCAGAAGCGUUCUCGUCGCGGCCCCUGUCAGAUUCUGGUGAAUCUGCGAAUUCUGCUGU [C6A A23U] here?
Answer: 0.749

Question: With GGGGGACACAGCAGAAGCGUUCACGUCGCGGCCCCUUUCAGAUUCUGGUGAAUCUGCGAAUUCUGCUGU [C6A G37U] as the variant, how does the self-cleavage read?
Answer: 0.142

Question: With GGGGGACACAGCAGAAGCGUUCACGUCGCGGCCCCUAUCAGAUUCUGGUGAAUCUGCGAAUUCUGCUGU [C6A G37A] as the variant, how does the self-cleavage read?
Answer: 0.149

Question: With GGGGGACACAGCAGAAGCGUUCACGUCGCGGCCCCUCUCAGAUUCUGGUGAAUCUGCGAAUUCUGCUGU [C6A G37C] as the variant, how does the self-cleavage read?
Answer: 0.122

Question: For GGGGGACACAGCAGAAGCGUUCACGUCGCGGCGCCUGUCAGAUUCUGGUGAAUCUGCGAAUUCUGCUGU [C6A C33G], which self-cleavage is on record?
Answer: 0.108

Question: Which self-cleavage does the source give for GGGGGACACAGCAGAAGCGUUCACGUCGCGGCUCCUGUCAGAUUCUGGUGAAUCUGCGAAUUCUGCUGU [C6A C33U] here?
Answer: 0.347

Question: Which self-cleavage does the source give for GGGGGACACAGCAGAAGCGUUCACGUCGCGGCCCCUGUCAGAUUCUGGUGAGUCUGCGAAUUCUGCUGU [C6A A52G] here?
Answer: 0.58

Question: Which self-cleavage does the source give for GGGGGACACAGCAGAAGCGUUCACGUCGCGGCCCCUGUCAGAUUCUGGUGAUUCUGCGAAUUCUGCUGU [C6A A52U] here?
Answer: 0.559

Question: With GGGGGACACAGCAGAAGCGUUCACGUCGCGGCCCCUGUCAGAUUCUAGUGAAUCUGCGAAUUCUGCUGU [C6A G47A] as the variant, how does the self-cleavage read?
Answer: 0.712

Question: With GGGGGACACAGCAGAAGCGUUCACGUCGCGGCCCCUGUCAGAUUCUCGUGAAUCUGCGAAUUCUGCUGU [C6A G47C] as the variant, how does the self-cleavage read?
Answer: 0.689

Question: Which self-cleavage does the source give for GGGGGACACAGCAGAAGCGUUCACGUCGCGGCCCCUGUCAGAUUCUGGUGAAUCUGCGACUUCUGCUGU [C6A A60C] here?
Answer: 0.17

Question: Which self-cleavage does the source give for GGGGGACACAGCAGAAGCGUUCACGUCGCGGCCCCUGUCAGAUUCUGGUGAAUCUGCGAUUUCUGCUGU [C6A A60U] here?
Answer: 0.226

Question: With GGGGGACACAGCAGAAGCGUUCACGUCGCGGCCCCUGUCAGAUUCUGGUGAAUCUGCGAGUUCUGCUGU [C6A A60G] as the variant, how does the self-cleavage read?
Answer: 0.326

Question: With GGGGGACACAGCAGAAGCGUUCACGUCGCGGCCCCUGUCAGAUUCUGGUGUAUCUGCGAAUUCUGCUGU [C6A A51U] as the variant, how does the self-cleavage read?
Answer: 0.545

Question: Which self-cleavage does the source give for GGGGGACACAGCAGAAGCGUUCACGUCGCGGCCCCUGUCAGAUUCUGGUGCAUCUGCGAAUUCUGCUGU [C6A A51C] here?
Answer: 0.458

Question: With GGGGGACACAGCAGAAGCGUUCACGUCGCGGCCCCUGUCAGAUUCUGGUGGAUCUGCGAAUUCUGCUGU [C6A A51G] as the variant, how does the self-cleavage read?
Answer: 0.604

Question: Which self-cleavage does the source give for GGGGGACACAGCAGAAGCGUUCACUUCGCGGCCCCUGUCAGAUUCUGGUGAAUCUGCGAAUUCUGCUGU [C6A G25U] here?
Answer: 0.1

Question: With GGGGGACACAGCAGAAGCGUUCACAUCGCGGCCCCUGUCAGAUUCUGGUGAAUCUGCGAAUUCUGCUGU [C6A G25A] as the variant, how does the self-cleavage read?
Answer: 0.136

Question: For GGGGGACACAGCAGAAGCGUUCACCUCGCGGCCCCUGUCAGAUUCUGGUGAAUCUGCGAAUUCUGCUGU [C6A G25C], which self-cleavage is on record?
Answer: 0.133

Question: With GGGGGACACAGCAGAAGCGUUCACGUCGCGGCCCCUGUCAGCUUCUGGUGAAUCUGCGAAUUCUGCUGU [C6A A42C] as the variant, how does the self-cleavage read?
Answer: 0.221

Question: For GGGGGACACAGCAGAAGCGUUCACGUCGCGGCCCCUGUCAGGUUCUGGUGAAUCUGCGAAUUCUGCUGU [C6A A42G], which self-cleavage is on record?
Answer: 0.609

Question: For GGGGGACACAGCAUAAGCGUUCACGUCGCGGCCCCUGUCAGAUUCUGGUGAAUCUGCGAAUUCUGCUGU [C6A G14U], which self-cleavage is on record?
Answer: 0.116

Question: With GGGGGACACAGCAAAAGCGUUCACGUCGCGGCCCCUGUCAGAUUCUGGUGAAUCUGCGAAUUCUGCUGU [C6A G14A] as the variant, how does the self-cleavage read?
Answer: 0.128

Question: With GGGGGACACAGCACAAGCGUUCACGUCGCGGCCCCUGUCAGAUUCUGGUGAAUCUGCGAAUUCUGCUGU [C6A G14C] as the variant, how does the self-cleavage read?
Answer: 0.101

Question: Which self-cleavage does the source give for GGGGGACACAGCAGAAGCCUUCACGUCGCGGCCCCUGUCAGAUUCUGGUGAAUCUGCGAAUUCUGCUGU [C6A G19C] here?
Answer: 0.107

Question: Which self-cleavage does the source give for GGGGGACACAGCAGAAGCAUUCACGUCGCGGCCCCUGUCAGAUUCUGGUGAAUCUGCGAAUUCUGCUGU [C6A G19A] here?
Answer: 0.105

Question: With GGGGGACACAGAAGAAGCGUUCACGUCGCGGCCCCUGUCAGAUUCUGGUGAAUCUGCGAAUUCUGCUGU [C6A C12A] as the variant, how does the self-cleavage read?
Answer: 0.16

Question: With GGGGGACACAGGAGAAGCGUUCACGUCGCGGCCCCUGUCAGAUUCUGGUGAAUCUGCGAAUUCUGCUGU [C6A C12G] as the variant, how does the self-cleavage read?
Answer: 0.26

Question: Which self-cleavage does the source give for GGGGGACACAGCAGAAGCGUUCACGUCGCGGCCCCUGUCAGAUUCUGGUGAAUCUGCGGAUUCUGCUGU [C6A A59G] here?
Answer: 0.464

Question: With GGGGGACACAGCAGAAGCGUUCACGUCGCGGCCCCUGUAAGAUUCUGGUGAAUCUGCGAAUUCUGCUGU [C6A C39A] as the variant, how does the self-cleavage read?
Answer: 0.231

Question: Which self-cleavage does the source give for GGGGGACACAGCAGAAGCGUUCACGUCGCGGCCCCUGUUAGAUUCUGGUGAAUCUGCGAAUUCUGCUGU [C6A C39U] here?
Answer: 0.416

Question: For GGGGGACAGAGCAGAAGCGUUCACGUCGCGGCCCCUGUCAGAUUCUGGUGAAUCUGCGAAUUCUGCUGU [C6A C9G], which self-cleavage is on record?
Answer: 1.02

Question: With GGGGGACAAAGCAGAAGCGUUCACGUCGCGGCCCCUGUCAGAUUCUGGUGAAUCUGCGAAUUCUGCUGU [C6A C9A] as the variant, how does the self-cleavage read?
Answer: 0.961

Question: Which self-cleavage does the source give for GGGGGACACAGCAGAAGCGUUCACGUCGCGGCCCCUGUCAAAUUCUGGUGAAUCUGCGAAUUCUGCUGU [C6A G41A] here?
Answer: 0.241

Question: Which self-cleavage does the source give for GGGGGACACAGCAGAAGGGUUCACGUCGCGGCCCCUGUCAGAUUCUGGUGAAUCUGCGAAUUCUGCUGU [C6A C18G] here?
Answer: 0.145

Question: With GGGGGACACAGCAGAAGAGUUCACGUCGCGGCCCCUGUCAGAUUCUGGUGAAUCUGCGAAUUCUGCUGU [C6A C18A] as the variant, how does the self-cleavage read?
Answer: 0.167
